{
  "source": "patent US20110086044A1",
  "about": "“Compositions and Methods to Inhibit HPV Infection” (University of Southern California, priority 2009, published 2011)",
  "key": {"[1]": {"conditions": "cited from earlier work"}, "[2]": {"target": "T1, ANXA2 heterotetramer (Homo sapiens, UniProt P07355)", "T1 construct": "endogenous in cells; host or cells: human monocyte-derived Langerhans cells (from PBL of healthy donors)", "T1 sequence (P07355 2-339 limits assumed)": "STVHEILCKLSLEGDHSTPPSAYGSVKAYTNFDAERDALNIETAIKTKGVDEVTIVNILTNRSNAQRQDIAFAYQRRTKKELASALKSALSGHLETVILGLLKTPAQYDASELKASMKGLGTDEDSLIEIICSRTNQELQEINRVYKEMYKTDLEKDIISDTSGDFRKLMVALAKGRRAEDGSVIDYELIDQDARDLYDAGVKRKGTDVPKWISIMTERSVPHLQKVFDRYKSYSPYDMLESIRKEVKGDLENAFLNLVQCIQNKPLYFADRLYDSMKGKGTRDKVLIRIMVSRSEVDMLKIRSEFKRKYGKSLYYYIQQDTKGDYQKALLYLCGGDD", "T1 sequence (P60903 2-97 partner limits assumed)": "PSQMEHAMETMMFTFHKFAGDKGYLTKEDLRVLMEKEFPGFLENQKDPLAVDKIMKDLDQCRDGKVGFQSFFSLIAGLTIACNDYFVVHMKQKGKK", "assay": "L2108-120 peptide pulldown assay from Langerhans cells (silver stain, mass spectrometry, immunoblot)", "assay_type": "binding", "protocol": "LC were incubated with either no peptide or 50 μg/5×10^5 cells of 6×His-L2108-120 peptide and subsequently cross-linked with DTSSP. Cells were then lysed and mixed with a Ni-NTA agarose slurry overnight and ten fractions were eluted. Non-reduced eluates were electrophoresed, transferred to nitrocellulose and probed with an anti-ANXA2 antibody or an anti-6×His antibody, followed by a peroxidase-labeled secondary antibody. Antibody binding was detected with enhanced chemiluminescence.\nA. LC were incubated with either no peptide or (6×)His-L2108-120 peptide and subsequently cross-linked with DTSSP. Cells were lysed and mixed with a Ni-NTA agarose slurry and eluted. Reduced eluate 5 was electrophoresed and silver stained. The unique band right above ˜39 kDa was isolated and analyzed by mass spectrometry. One representative experiment of two is shown. B. LC were incubated with either no peptide or (6×)His-L2108-120 peptide and subsequently cross-linked with DTSSP. Cells were then lysed and mixed with a Ni-NTA agarose slurry overnight and eluted. Eluates were then electrophoresed, transferred to nitrocellulose and probed with either an anti-ANXA2 or an anti-ANXA2 light chain antibody. […]. One representative experiment of two is shown.\nL2108-120 Peptide Pulldown Assay. […] The eluates were collected and analyzed by non-reducing immunoblots and reduced silver stain gels. […]"}, "[3]": {"test_system": "ANXA2", "assay": "siRNA inhibition of ANXA2 in LC, ANXA2 protein expression by immunoblot", "assay_type": "cell-based, human", "conditions": "Amaxa nucleofection", "protocol": "(§1) FIGS. 8A & B are gel pictures showing downregulation of ANXA2 inhibits uptake of HPV16L1L2 VLP. A. LC were transfected using the Amaxa Nucleofector kit without siRNA (Untreated), with control siRNA or with two different ANXA2 siRNA sequences. The cells were incubated for 6 days before analysis of ANXA2 protein expression by immunoblot. GAPDH served as the loading control. One representative experiment of three is shown. B. LC were transfected using the Amaxa Nucleofector kit without siRNA (Untreated), with control siRNA or with ANXA2 siRNA #2. The cells were incubated for 6 days and exposed to CFDA-SE labeled HPV16L1L2 VLP for 15 min. Uptake was assessed by flow cytometry.\n(§2) siRNA Inhibition of ANXA2 in LC and HPV16 VLP Uptake Assay. ANXA2 siRNA was synthesized at the USC Genomics Core (Los Angeles, Calif.) based on the sequences: ANXA2 siRNA #1 ([…])/([…]) (SEQ ID NO: 5); ANXA2 siRNA #2 ([…])/([…]) (SEQ ID NO: 6). Control siRNA was from (S76). ANXA2 or Control siRNA was transfected into LC using the Amaxa Human Dendritic Cell Nucleofector kit (Lonza) as directed by the manufacturer's instructions. The cells were incubated for 6 days before they were analyzed by an anti-ANXA2 immunoblot and used in an HPV16 VLP uptake assay. HPV VLP were labeled with CFDA-SE as described above. […] Finally, HPV16 VLP uptake by LC was assessed via flow cytometry."}, "[4]": {"test_system": "HPV16L1L2 VLP", "assay": "HPV16L1L2 VLP uptake assay in siRNA-transfected LC (flow cytometry)", "assay_type": "cell-based, human", "conditions": "6 days after transfection, VLP 15 min; compared to untreated and control siRNA treated LC", "protocol": "as §1, §2"}, "[5]": {"test_system": "HPV16L1L2 VLP", "assay": "HPV16L1L2 VLP binding assay on Langerhans cells (flow cytometry, H16.V5 antibody)", "assay_type": "cell-based, human", "conditions": "increasing peptide concentrations (1-100 μg)/0.5×10^6 cells, 1 h at 4° C.", "protocol": "LC were incubated with increasing concentrations of the L2108-120 peptide and subsequently incubated with HPV16L1L2 VLP. HPV16L1L2 VLP remaining on the surface of LC were detected using a L1 specific conformational antibody (H16.V5). Binding was assessed by flow cytometry.\nHPV16L1L2 VLP Binding Assay. LC were incubated with the HPV16 L2 peptide aa 108-120 ([…] SEQ ID NO: 4) (Kawana et al. (2001) J. Virol. 75: 2331-6) at varying concentrations (1-100 μg)/0.5×10^6 cells for 1 h at 4° C. Subsequently, the LC were incubated with 0.25 μg of HPV16L1L2 VLP/treatment for 1 h at 4° C. and then incubated with an anti-L1 (H16.V5) antibody (a gift from Neil Christensen, Penn State University) at a concentration of 1:25,000 for 30 min at 4° C. The cells were then incubated with biotinylated anti-mouse-IgG2b at a concentration of 1:50 for 30 min at 4° C. Next, the HPV16L1L2 VLP/anti-L1/biotin treated cells were stained with streptavidin-FITC at a concentration of 1:50 for 30 min. The cells were washed between each incubation with 135 μl FACS buffer. In control experiments, cells were left untreated or probed with either peptide/anti-L1/biotin-strepavidin-FITC or VLP/anti-L1/biotin-strepavidin-FITC. Finally, HPV16L1L2 VLP binding to LC was assessed by flow cytometry. Binding is calculated as the MFI of the sample divided by the MFI of the untreated control multiplied by 100."}, "[6]": {"test_system": "HPV16L1 VLP", "assay": "HPV16 VLP uptake assay with SLPI: uptake of CFDA-SE labeled HPV16L1 VLP by Langerhans cells (flow cytometry)", "assay_type": "cell-based, human", "conditions": "SLPI 30 ug/ml (optimal concentration), VLP 15 min; Example 2", "protocol": "(§3) LC were left untreated or incubated with 30 μg human recombinant SLPI (R&D Systems) for 1 h at 4° C. Subsequently, the cells were washed and incubated with CFDA-SE-labeled HPV16 L1 VLP or HPV16 L1L2 VLP at 37° C. After 15 min, cells were washed at 4° C., then fixed with 1% paraformaldehyde and analyzed for intracellular CFDA-SE by flow cytometry. Percent of VLP uptake was calculated using the following equation: [(MFI experimental plus SLPI)−(MFI background)/[(MFI experimental untreated cells)−(MFI background)]×100. Shown is the average uptake of 3 experiments (±SEM). *p=0.04 compared to untreated LC.\n(§4) FIGS. 7A & B are charts showing that SLPI inhibits the uptake of HPV16L1L2 VLP by LC. A. LC were incubated with increasing concentrations of SLPI, then incubated with CFDA-SE labeled HPV16L1L2 VLP for 15 min. Uptake of CFDA-SE labeled HPV16L1L2 VLP by LC was assessed by flow cytometry. The mean percentage of uptake ±SEM of three separate experiments is presented (*P<0.05 by a two-tailed, paired t-test, as compared to the negative control). […] Uptake of CFDA-SE labeled HPV16 VLP by LC was assessed by flow cytometry. […]\n(§5) HPV16 VLP Uptake Assay with SLPI. […] Finally, HPV16 VLP uptake by LC was assessed via flow cytometry. Percent uptake is calculated as the mean fluorescent intensity (MFI) of the sample divided by the MFI of the untreated control multiplied by 100."}, "[7]": {"test_system": "HPV16L1L2 VLP", "assay": "HPV16 VLP uptake assay with SLPI: uptake of CFDA-SE labeled HPV16L1L2 VLP by Langerhans cells (flow cytometry)", "assay_type": "cell-based, human", "protocol": "as §3, §4, §5"}},
  "data": [
    {"molecule": "CCOCc1nc2c(N)nc3ccccc3c2[nH]1", "note": "[CL097]", "values": [
      {"measurement": "water solubility", "setting": "[1]", "result": "≤ 20", "unit": "mg/mL"}
    ]},
    {"molecule": "(6×)His-L2108-120 peptide: 6×His-tagged HPV16 L2 aa 108-120 peptide used for pulldown (HHHHHHLVEETSFIDAGAP)", "values": [
      {"measurement": "protein pulled down from LC, unique silver-stain band identified by mass spectrometry", "setting": "[2]; 50 μg/0.5×10^6 cells, DTSSP cross-linking, elution 5", "result": "predicted to be annexin A2 (ANXA2)"}
    ]},
    {"molecule": "(CGGGAUGCUUUGAACAUUGAATT)/(UUCAAUGUUCAAAGCAUCCCGTT) (chemistry not given here) [ANXA2 siRNA #2]", "values": [
      {"measurement": "time of optimal ANXA2 protein knockdown post-transfection", "setting": "[3]", "result": 6, "unit": "days"},
      {"measurement": "uptake of HPV16L1L2 VLP into LC", "setting": "[4]", "result": "significantly reduced the uptake of HPV16L1L2 VLP into LC"}
    ]},
    {"molecule": "LVEETSFIDAGAP (listed as Human papillomavirus) [L2108-120 peptide]", "values": [
      {"measurement": "HPV16L1L2 VLP bound to the LC surface", "setting": "[5]", "result": "significantly decreased numbers of HPV16L1L2 VLP bound to the LC surface"},
      {"measurement": "proteins in pulldown eluates by immunoblot", "setting": "[2]; anti-ANXA2 and anti-ANXA2 light chain antibodies", "result": "both ANXA2 and ANXA2 light chain were present"}
    ]},
    {"molecule": "SLPI: recombinant human secretory leukocyte protease inhibitor (R&D Systems), serine protease inhibitor and ligand of ANXA2; SEQ ID NO: 2 (protein, listed as Homo sapiens) MKSSGLFPFLVLLALGTLAPWAVEGSGKSFKAGVCPPKKSAQCLRYKKPECQSDWQCPGKKRCCPDTCGIKCLDPVDTPNPTRRKPGKCPVTYGQCLMLNPPNFCEMDGQCKRDLKCCMGMCGKSCVSPVKA", "values": [
      {"measurement": "internalization of HPV16L1 VLP by LC", "setting": "[6]", "result": "did not inhibit HPV16L1 VLP uptake"},
      {"measurement": "uptake of HPV16L1L2 VLP into LC", "setting": "[7]; 30 μg SLPI 1 h at 4° C., then VLP 15 min at 37° C., FIG. 2, 3 experiments", "result": "blocks HPV16 L1L2 VLP uptake into LC"},
      {"measurement": "internalization of HPV16L1L2 VLP by LC", "setting": "[7]; increasing concentrations (5-30 μg/ml) of SLPI, VLP 15 min, Example 2", "result": "LC internalized decreasing amounts of HPV16L1L2 VLP"}
    ]}
  ]
}
